Data: the Immune Epitope Database (IEDB)
Blank lines part the entries; values can stand above or below the sequence they belong to.

Assays:
HLA-A*68:01 = assay: IEDB peptide-MHC binding, purified MHC/competitive/radioactivity; ≥ and ≤ were set here for values at or beyond the usual limits of such assays
HLA-A*03:01 = assay: as above
HLA-A*31:01 = assay: as above
HLA-A*66:01 [1] = assay: as above
HLA-A*33:01 [2] = assay: as above
HLA-A*30:01 [3] = assay: as above; conditions: source organism: Mus musculus
HLA-A*11:01 [4] = assay: as above
HLA-B*53:01 = assay: as above
HLA-B*42:01 = assay: as above
HLA-B*07:02 = assay: as above
HLA-A*30:01 [5] = assay: IEDB peptide-MHC binding, purified MHC/competitive/radioactivity; filed as Kd, often an IC50 or EC50 that approximates it; ≥ and ≤ were set here for values at or beyond the usual limits of such assays; conditions: source organism: Homo sapiens
HLA-A*11:01 [6] = assay: as above; conditions: source organism: Mus musculus
HLA-A*33:01 [7] = assay: as above; conditions: source organism: Homo sapiens
HLA-B*54:01 = assay: as above; conditions: source organism: Mus musculus
HLA-B*35:01 = assay: as above; conditions: source organism: Mus musculus
HLA-B*51:01 = assay: as above; conditions: source organism: Mus musculus
HLA-B*35:03 = assay: IEDB peptide-MHC binding, purified MHC/competitive/radioactivity; ≥ and ≤ were set here for values at or beyond the usual limits of such assays; conditions: source organism: Mus musculus
HLA-A*66:01 [8] = assay: IEDB peptide-MHC binding, purified MHC/competitive/radioactivity; filed as Kd, often an IC50 or EC50 that approximates it; ≥ and ≤ were set here for values at or beyond the usual limits of such assays; conditions: source organism: Mus musculus

IC50 (HLA-A*68:01; source organism: Mus musculus): 0.109 µM
IC50 (HLA-A*03:01; source organism: Mus musculus): 0.428 µM
IC50 (HLA-A*31:01; source organism: Mus musculus): 0.067 µM
IC50 (HLA-A*66:01 [1]; source organism: Mus musculus): 4.55 µM
IC50 (HLA-A*33:01 [2]; source organism: Mus musculus): 1.08 µM
IC50 (HLA-A*30:01 [3]): 49.8 µM
IC50 (HLA-A*11:01 [4]; source organism: Mus musculus): 0.209 µM
Sequence: AINSEMFLR

IC50 (HLA-B*53:01; source organism: Homo sapiens): 15.5 µM
IC50 (HLA-B*42:01; source organism: Homo sapiens): 6.07 µM
IC50 (HLA-B*07:02; source organism: Homo sapiens): 0.462 µM
Sequence: GPGAGSLQPLAL

Kd (HLA-A*30:01 [5]): ≥ 50 µM
IC50 (HLA-A*68:01; source organism: Homo sapiens): 0.066 µM
IC50 (HLA-A*03:01; source organism: Homo sapiens): 17.5 µM
IC50 (HLA-A*31:01; source organism: Homo sapiens): 38.4 µM
IC50 (HLA-A*66:01 [1]; source organism: Homo sapiens): 0.515 µM
IC50 (HLA-A*33:01 [2]; source organism: Homo sapiens): 3.27 µM
IC50 (HLA-A*11:01 [4]; source organism: Homo sapiens): 34.5 µM
Sequence: LALEGSLQKR

Kd (HLA-A*11:01 [6]): ≥ 50 µM
IC50 (HLA-A*68:01; source organism: Mus musculus): 12.6 µM
IC50 (HLA-A*03:01; source organism: Mus musculus): 43.6 µM
IC50 (HLA-A*31:01; source organism: Mus musculus): 10.8 µM
IC50 (HLA-A*66:01 [1]; source organism: Mus musculus): 13 µM
IC50 (HLA-A*33:01 [2]; source organism: Mus musculus): 9.14 µM
IC50 (HLA-A*30:01 [3]): 43 µM
Sequence: LALEVARQKR

Kd (HLA-A*33:01 [7]): ≥ 50 µM
Kd (HLA-A*30:01 [5]): ≥ 50 µM
IC50 (HLA-A*68:01; source organism: Homo sapiens): 41.5 µM
IC50 (HLA-A*03:01; source organism: Homo sapiens): 20.9 µM
IC50 (HLA-A*31:01; source organism: Homo sapiens): 39.4 µM
IC50 (HLA-A*66:01 [1]; source organism: Homo sapiens): 48.5 µM
IC50 (HLA-A*11:01 [4]; source organism: Homo sapiens): 37.1 µM
Sequence: PLALEGSLQ

Kd (HLA-B*54:01): ≥ 50 µM
Kd (HLA-B*35:01): ≥ 50 µM
Kd (HLA-B*51:01): ≥ 50 µM
IC50 (HLA-B*53:01; source organism: Mus musculus): 11 µM
IC50 (HLA-B*42:01; source organism: Mus musculus): 0.035 µM
IC50 (HLA-B*07:02; source organism: Mus musculus): 0.0044 µM
IC50 (HLA-B*35:03): 16.1 µM
Sequence: SPGDLQTLAL

Kd (HLA-A*66:01 [8]): ≥ 50 µM
IC50 (HLA-A*68:01; source organism: Mus musculus): 13.4 µM
IC50 (HLA-A*03:01; source organism: Mus musculus): 0.605 µM
IC50 (HLA-A*31:01; source organism: Mus musculus): 13 µM
IC50 (HLA-A*33:01 [2]; source organism: Mus musculus): 25.5 µM
IC50 (HLA-A*30:01 [3]): 23.3 µM
IC50 (HLA-A*11:01 [4]; source organism: Mus musculus): 3.33 µM
Sequence: TLALEVARQK
